Here are results for four molecules from article PMC4451460 (2015).

This assay has as its target C4 single-chain Fv antibody (C4 scFv) (human (from a human scFv phage-display …)). Nature of the assay: ITC.

MATLEKLMKAFESL [truncated peptide HTT(1-14)] came in with a Ka of 3.09e+06 M⁻¹.
Then MATLEKLMKAFESLK [truncated peptide HTT(1-15)], with 6.87e+06 M⁻¹; and MATLEKLMKAFESLKSF [HTT(1-17) peptide, the 17 N-terminal residues of huntingtin], with 1.8e+07 M⁻¹; and MATLEKLMKAFESLKS [truncated peptide HTT(1-16)], with 9.08e+06 M⁻¹.
